Target: CD33 on U937 cells (UniProt P20138)
Experiment: cell-based or functional assay

CD33 on U937 cells, sequence (P20138 18-364 limits assumed): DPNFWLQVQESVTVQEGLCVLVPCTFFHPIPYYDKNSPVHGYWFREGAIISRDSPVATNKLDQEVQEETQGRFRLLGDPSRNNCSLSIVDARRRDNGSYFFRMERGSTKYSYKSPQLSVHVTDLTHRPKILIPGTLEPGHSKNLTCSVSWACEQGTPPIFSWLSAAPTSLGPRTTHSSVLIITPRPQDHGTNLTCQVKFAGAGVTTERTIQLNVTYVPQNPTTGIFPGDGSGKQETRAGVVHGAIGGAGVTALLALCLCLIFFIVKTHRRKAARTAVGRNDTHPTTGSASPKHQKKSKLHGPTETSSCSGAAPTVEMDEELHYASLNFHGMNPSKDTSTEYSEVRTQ

CD33 % surface expression, 0 min: 100% | CD33 % surface expression, 15 min: 79% | CD33 % surface expression, 30 min: 72% | CD33 % surface expression, 45 min: 68% | CD33 % surface expression, 90 min: 53% | CD33 % surface expression, 120 min: 48% | MFI of pH sensitive dye, CD33 complexes, 0 hours: 20.8 | MFI of pH sensitive dye, CD33 complexes, 4 hours: 26 | MFI of pH sensitive dye, CD33 complexes, 24 hours: 31.9
Substance: anti-CD33 antibody P67.6

Source: patent US20250019432A1
